# Laboratory results: US20220363770A1
# Residue numbers refer to the chain shown, from its start.
# B1: anti-CGRP receptor variant 05, yeast-displayed Fab (Fab, V domains shown)
# VH: QVQLVESGGGVVQPGRSLRLSCAASGFTFSSFGMHWVRQAPGKGLEWVAVISFDGSIKYSVDSVKGRFTISRDNSKNTLFLQMNSLRAEDTAVYYCARDRLNYYESSGYYHYKYYGMAVWGQGTTVTVSS
# VL: QSVLTQPPSVSAAPGQKVTISCSGSFSNIGRSTVSWYQQLPGTAPKLLIYDNRWRAGGIPDRFSGSKSGTSATLGITGLQTGDEADYYCGTWDYQWKAVVFGGGTKLTVLG
# B2: 4E4.2 parental Fab, yeast-displayed (Fab, V domains shown)
# VH: B1 VH
# VL: QSVLTQPPSVSAAPGQKVTISCSGSSSNIGNNYVSWYQQLPGTAPKLLIYDNNKRPSGIPDRFSGSKSGTSATLGITGLQTGDEADYYCGTWDSRLSAVVFGGGTKLTVLG
# B3: anti-CGRP receptor variant 12, yeast-displayed Fab (Fab, V domains shown)
# VH: B1 VH
# VL: B1 VL with F26R, S32Y, T33S, W54Y, G57Q, Y94W, Q95A, W96T, K97T, A98S
# Experiments:
# [1] = biological target: human PAC1 receptor extracellular domain (ECD) (human) (UniProt P41586); assay: yeast-displayed Fab, FACS, 10 nM PAC1 receptor ECD
# Chain of human PAC1 receptor extracellular domain (ECD) (human) (P41586 24-153): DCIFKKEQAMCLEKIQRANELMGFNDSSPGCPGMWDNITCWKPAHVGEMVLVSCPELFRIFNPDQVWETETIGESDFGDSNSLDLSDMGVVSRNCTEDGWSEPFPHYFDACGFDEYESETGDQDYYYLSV
# [2] = biological target: human CGRP receptor extracellular domain (ECD) (human) (UniProt Q16602); assay: yeast-displayed Fab, FACS, 10 nM human CGRP receptor ECD
# Chain of human CGRP receptor extracellular domain (ECD) (human) (Q16602 23-138 limits assumed, chain 1 of 2): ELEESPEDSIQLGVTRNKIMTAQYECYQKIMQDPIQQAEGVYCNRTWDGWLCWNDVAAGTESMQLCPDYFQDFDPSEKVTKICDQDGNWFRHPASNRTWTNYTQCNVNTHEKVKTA
# Chain of human CGRP receptor extracellular domain (ECD) (human) (chain, as listed by the source limits assumed, chain 2 of 2): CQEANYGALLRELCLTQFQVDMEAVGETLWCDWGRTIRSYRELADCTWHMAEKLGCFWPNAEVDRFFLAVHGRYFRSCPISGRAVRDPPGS
# [3] = biological target: human CGRP receptor extracellular domain (ECD) (human) (UniProt Q16602); assay: yeast-displayed Fab, FACS, 1 nM human CGRP receptor ECD
Binder,Mutant vs. 4E4.2 Parent B/D Ratio [1] [fold],Normalized Binding Signal/Display Signal (B/D) [1],Mutant vs. 4E4.2 Parent B/D Ratio [2] [fold],Normalized Binding Signal/Display Signal (B/D) [2],Mutant vs. 4E4.2 Parent B/D Ratio [3] [fold],Normalized Binding Signal/Display Signal (B/D) [3]
B1,1.8,0.2,,,,
B2,1,0.11,1,0.15,1,0.12
B3,1.8,0.19,,,,
